According to patent US20260250404A1 (Genmab, published 2026):
Changes are numbered by the printed parent chain. Numbers in names are those of the source.

Key:
[1] = target: T1, recombinant His-tagged human FcγRIIIa, 176-Val [V] / V158 variant (human, UniProt P08637 17-208); test: SPR (Biacore 8K), His-tagged FcγR captured on anti-His chip, antibody injected, binding response (RU), n=3
T1 construct: also called FcγRIIIa-V; FcγRIIIa-V158

[2] = target: T2, recombinant His-tagged human FcγRIIa, 167-His [H] / H131 variant (human, UniProt P12318 34-218, limits assumed); test: as above
T2 construct: catalogue numbers differ; also called FcγRIIa-H; FcγRIIa-H131
T2 sequence (looked up): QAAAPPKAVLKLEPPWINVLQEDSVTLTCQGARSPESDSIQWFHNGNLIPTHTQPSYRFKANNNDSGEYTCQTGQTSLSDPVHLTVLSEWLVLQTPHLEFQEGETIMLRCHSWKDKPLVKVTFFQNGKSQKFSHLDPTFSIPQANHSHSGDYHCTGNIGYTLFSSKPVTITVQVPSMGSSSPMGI

[3] = target: T3, recombinant His-tagged human FcγRIIa, 167-Arg [R] / R131 variant (human, UniProt P12318 34-218, limits assumed); test: as above
T3 construct: catalogue numbers differ; also called FcγRIIa-R; FcγRIIa-R131
T3 sequence (looked up): T2 sequence (looked up) with H134R

[4] = target: T4, recombinant His-tagged human FcγRIIb (human, UniProt P31994 43-217, limits assumed); test: as above
T4 sequence (looked up): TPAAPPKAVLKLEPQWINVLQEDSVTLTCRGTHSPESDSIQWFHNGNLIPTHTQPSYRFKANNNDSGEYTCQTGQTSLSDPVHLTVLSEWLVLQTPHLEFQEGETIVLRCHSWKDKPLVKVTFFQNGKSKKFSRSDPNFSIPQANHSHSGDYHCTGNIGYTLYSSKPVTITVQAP

[5] = target: T5, human FcγRIa on the cell surface (transfected CHO-S cells, M0/M1 macrophages, hMDM, FcγRI effector reporter … (human, UniProt P12314 16-374)); test: flow cytometry on CHO-S cells transiently expressing human FcγRIa, PE goat anti-human IgG F(ab')2, % PE+ cells
T5 construct: whole, on cells; also called CD64

[6] = target: T6, recombinant human neonatal Fc receptor FcRn (SinoBiological CT071-H27H-B) (human, UniProt P55899 24-297; P61769 21-119); test: SPR (Biacore 8K) at pH 6.0; FcRn captured by anti-His, antibody as analyte; average of three measurements; pH 6.0
T6 construct: Composition of the bought protein is not described

[7] = target: human CD27-A59T variant on transfected HEK293F cells (human, UniProt P26842 20-260); test: flow cytometry on HEK293F cells transfected with human CD27-A59T, PE-labeled goat anti-human IgG, median MFI PE
[8] = target: T7, cynomolgus monkey CD27 on the cell surface (T cells, transfected HEK293F cells) (cynomolgus monkey, UniProt P26842 20-260 (human entry)); test: flow cytometry on T cells in cynomolgus monkey PBMC (endogenous CD27), PE-labeled goat anti-human IgG, median MFI PE
T7 construct: also called Cyno CD27
T7 chain: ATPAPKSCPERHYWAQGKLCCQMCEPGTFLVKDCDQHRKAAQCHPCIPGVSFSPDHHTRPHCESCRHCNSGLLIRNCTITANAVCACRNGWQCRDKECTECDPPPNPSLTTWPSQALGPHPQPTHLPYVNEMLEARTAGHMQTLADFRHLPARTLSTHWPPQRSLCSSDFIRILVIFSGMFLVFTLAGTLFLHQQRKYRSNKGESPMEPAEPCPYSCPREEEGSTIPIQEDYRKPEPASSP

[9] = target: T8, human CD27 on the cell surface (T cells, transfected HEK293F cells, Daudi cells, NFκB-luc2/CD27 Jurkat cells) (human, UniProt P26842 20-240); test: flow cytometry on T cells in human PBMC (endogenous CD27), PE-labeled goat anti-human IgG, median MFI PE
T8 construct: Full length human CD27, endogenous or transfected; also called TNFRSF7

[10] = target: T7, cynomolgus monkey CD27 on the cell …; test: flow cytometry on HEK293F cells transfected with cynomolgus monkey CD27, PE-labeled goat anti-human IgG, median MFI PE
[11] = target: T8, human CD27 on the cell surface (T …); test: flow cytometry on HEK293F cells transfected with human CD27, PE-labeled goat anti-human IgG, median MFI PE
[12] = target: cynomolgus monkey PD-1 on transfected CHO-S cells (cynomolgus monkey, UniProt B0LAJ3 25-288); test: flow cytometry on CHO-S cells transiently transfected with cynomolgus monkey PD-1, PE goat anti-human IgG F(ab')2, gMFI (PE)
[13] = target: T9, recombinant His-tagged human FcγRIIIa, 176-Phe [F] / F158 variant (human, UniProt P08637 17-208); test: SPR (Biacore 8K), His-tagged FcγR captured on anti-His chip, antibody injected, binding response (RU), n=3
T9 construct: also called FcγRIIIa-F; FcγRIIIa-F158

[14] = target: T10, human complement protein C1q (from normal human serum) (human, UniProt P02745 23-245; P02746 28-253; P02747 29-245); test: flow cytometry, C1q (20% normal human serum) binding to antibody bound on human T cells, FITC anti-C1q
T10 construct: Native C1q supplied as 20% normal human serum

[15] = target: T10, human complement protein C1q (from …); test: flow cytometry, C1q (20% normal human serum) binding to antibody bound on human T cells, FITC anti-C1q, median MFI FITC
[16] = target: T11, recombinant His-tagged human CD27 protein (Sino Biological, Cat #10039-H08B1) (human, UniProt P26842 20-192); test: BLI (Octet HTX); CD27-His on anti-Penta-HIS sensor, antibody monovalent for CD27 in solution; 1:1 model
T11 construct: Bought protein; also called Human CD27-His; not shown: His tag

[17] = target: T12, recombinant cynomolgus monkey CD27-Fc fusion protein (R&D systems, Cat #9904-CD-100) (cynomolgus monkey, UniProt P26842 21-192 (human entry), limits assumed); test: BLI (Octet HTX); cyno CD27-Fc on AR2G sensor, antibody monovalent for CD27 in solution; 1:1 model
T12 construct: Bought protein; also called Cyno CD27-Fc; not shown: Fc part of the fusion; not described
T12 chain: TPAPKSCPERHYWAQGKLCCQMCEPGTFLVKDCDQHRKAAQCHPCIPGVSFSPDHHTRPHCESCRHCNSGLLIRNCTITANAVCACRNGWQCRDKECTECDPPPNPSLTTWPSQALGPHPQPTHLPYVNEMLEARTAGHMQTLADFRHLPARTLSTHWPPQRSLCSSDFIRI

T5 sequence (P12314 16-374): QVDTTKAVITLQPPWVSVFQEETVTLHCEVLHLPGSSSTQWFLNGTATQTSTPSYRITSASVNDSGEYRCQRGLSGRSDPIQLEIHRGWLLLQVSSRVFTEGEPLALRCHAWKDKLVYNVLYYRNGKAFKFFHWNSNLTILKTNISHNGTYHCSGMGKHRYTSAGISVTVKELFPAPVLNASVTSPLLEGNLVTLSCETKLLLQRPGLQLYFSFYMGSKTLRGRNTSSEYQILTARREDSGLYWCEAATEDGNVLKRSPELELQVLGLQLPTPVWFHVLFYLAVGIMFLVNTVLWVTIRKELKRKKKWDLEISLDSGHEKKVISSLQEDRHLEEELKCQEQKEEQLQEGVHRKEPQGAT
T10 sequence (P02745 23-245, chain 1 of 3): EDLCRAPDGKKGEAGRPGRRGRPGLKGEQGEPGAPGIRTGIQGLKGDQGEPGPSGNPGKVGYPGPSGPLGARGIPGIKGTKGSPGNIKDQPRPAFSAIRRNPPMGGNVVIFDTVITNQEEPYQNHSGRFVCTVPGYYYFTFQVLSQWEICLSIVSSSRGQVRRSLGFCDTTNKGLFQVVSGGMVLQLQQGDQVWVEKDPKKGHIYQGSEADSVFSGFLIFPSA
T10 sequence (P02746 28-253, chain 2 of 3): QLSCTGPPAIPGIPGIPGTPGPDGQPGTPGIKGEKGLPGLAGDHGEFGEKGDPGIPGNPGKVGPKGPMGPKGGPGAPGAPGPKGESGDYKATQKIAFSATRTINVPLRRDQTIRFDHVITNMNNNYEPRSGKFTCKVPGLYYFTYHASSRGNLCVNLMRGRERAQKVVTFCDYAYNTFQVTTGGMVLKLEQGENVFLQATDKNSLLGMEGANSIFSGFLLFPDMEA
T10 sequence (P02747 29-245, chain 3 of 3): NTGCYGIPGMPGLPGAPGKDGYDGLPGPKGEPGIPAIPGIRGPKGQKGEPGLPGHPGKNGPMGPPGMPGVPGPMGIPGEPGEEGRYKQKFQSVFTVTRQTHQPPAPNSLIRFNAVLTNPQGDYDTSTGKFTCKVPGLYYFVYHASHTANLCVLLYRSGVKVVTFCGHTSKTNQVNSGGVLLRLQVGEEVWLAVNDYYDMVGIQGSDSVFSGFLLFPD
T1 sequence (P08637 other isoform, or with tags, fused parts or gaps mutant limits assumed): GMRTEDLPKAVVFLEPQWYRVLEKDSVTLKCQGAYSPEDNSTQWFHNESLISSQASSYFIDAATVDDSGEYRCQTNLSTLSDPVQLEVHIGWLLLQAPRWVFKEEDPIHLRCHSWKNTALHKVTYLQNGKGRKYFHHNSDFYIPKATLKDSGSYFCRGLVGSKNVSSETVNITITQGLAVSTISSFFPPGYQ
T9 sequence (P08637 17-208 limits assumed, change not shown): as the sequence (P08637 other isoform, or with tags, fused parts or gaps mutant limits assumed) above, with V160F counted along it
Sequence of cynomolgus monkey PD-1 on transfected CHO-S cells (B0LAJ3 entry or part of it limits assumed): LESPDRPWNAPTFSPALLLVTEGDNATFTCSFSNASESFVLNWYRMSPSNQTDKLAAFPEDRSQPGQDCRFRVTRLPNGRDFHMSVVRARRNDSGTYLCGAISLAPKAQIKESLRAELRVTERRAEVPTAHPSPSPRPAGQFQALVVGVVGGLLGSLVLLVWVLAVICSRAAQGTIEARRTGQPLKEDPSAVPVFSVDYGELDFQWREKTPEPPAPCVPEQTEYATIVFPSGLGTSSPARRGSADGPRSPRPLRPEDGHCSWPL

B1: nivolumab (antibody, human IgG4 S228P, kappa)
heavy: not shown
light: not shown
notes: also called Opdivo
B1: binds [1]; binds [2]; binds [3]. The binding result [4] was “binds”, the “EC50 (read off the curve)” value [5] was about 0.2 µg/mL and the Kd [6] was 133 nM. It also gave a koff [6] of 0.0689 s⁻¹ and a kon [6] of 518000 M⁻¹ s⁻¹.

B2: IgG1-CD27-A carrying F405L-L234F-L235E-D265A in the IgG Fc domain (antibody, V domains shown)
VH: QVQLMQSGSELKKPGASVKVSCRASGYTFTTYAMNWVRQAPGQGPEWMGWINTNTGNPTYAQGFTGRFVFSLDTTVTTTYLQISSLKAEDTAVYFCAREAGSFDYWGQGTLVTVSS
VL: QSALTQPASVSGSPGQSITISCTGTSSDVYYYNYVSWYQQHPGRAPKLVIYDVSNRPSGVSNRFSGSKSGNTASLTISGLRAEDEADYYCSSYTVNRVWVFGGGTKLTVL
With B2 the “EC50 (read off the curve)” value [7] was about 0.2 µg/mL, the “EC50 (read off the curve)” value [8] was about 0.03 µg/mL and the “EC50 (read off the curve)” value [9] was about 0.04 µg/mL. For the same binder, the “EC50 (read off the curve)” value [10] was about 0.06 µg/mL and the “EC50 (read off the curve)” value [11] was about 0.1 µg/mL.

B3: pembrolizumab (antibody, human IgG4 S228P, kappa)
heavy: not shown
light: EIVLTQSPATLSLSPGERATLSCRASKGVSTSGYSYLHWYQQKPGQAPRLLIYLASYLESGVPARFSGSGSGTDFTLTISSLEPEDFAVYYCQHSRDLPLTFGGGTKVEIKRTVAAPSVFIFPPSDEQLKSGTASVVCLLNNFYPREAKVQWKVDNALQSGNSQESVTEQDSKDSTYSLSSTLTLSKADYEKHKVYACEVTHQGLSSPVTKSFNRGEC
notes: also called Keytruda
B3 was tested, and the binding result [1] was “binds”, the “EC50 (read off the curve)” value [5] was about 0.8 µg/mL and the “EC50 (read off the curve)” value [12] was about 0.05 µg/mL. B3: binds [13].

B4: dostarlimab (antibody)
chain 1: not shown
chain 2: DIQLTQSPSFLSAYVGDRVTITCKASQDVGTAVAWYQQKPGKAPKLLIYWASTLHTGVPSRFSGSGSGTEFTLTISSLQPEDFATYYCQHYSSYPWTFGQGTKLEIKRTVAAPSVFIFPPSDEQLKSGTASVVCLLNNFYPREAKVQWKVDNALQSGNSQESVTEQDSKDSTYSLSSTLTLSKADYEKHKVYACEVTHQGLSSPVTKSFNRGEC
B4 was tested, and the “EC50 (read off the curve)” value [5] was about 0.2 µg/mL.

B5: IgG1-CD27-A (wild-type IgG1 Fc) (antibody)
heavy: not shown
light: QSALTQPASVSGSPGQSITISCTGTSSDVYYYNYVSWYQQHPGRAPKLVIYDVSNRPSGVSNRFSGSKSGNTASLTISGLRAEDEADYYCSSYTVNRVWVFGGGTKLTVLGQPKAAPSVTLFPPSSEELQANKATLVCLISDFYPGAVTVAWKADSSPVKAGVETTTPSKQSNNKYAASSYLSLTPEQWKSHRSYSCQVTHEGSTVEKTVAPTECS
notes: also called WT IgG1-CD27-A; IgG-CD27-A; copies: 2 + 2
B5: no binding (tested: 15 µg/mL) [14].

B6: IgG1-CD27-A-E345R (antibody)
heavy: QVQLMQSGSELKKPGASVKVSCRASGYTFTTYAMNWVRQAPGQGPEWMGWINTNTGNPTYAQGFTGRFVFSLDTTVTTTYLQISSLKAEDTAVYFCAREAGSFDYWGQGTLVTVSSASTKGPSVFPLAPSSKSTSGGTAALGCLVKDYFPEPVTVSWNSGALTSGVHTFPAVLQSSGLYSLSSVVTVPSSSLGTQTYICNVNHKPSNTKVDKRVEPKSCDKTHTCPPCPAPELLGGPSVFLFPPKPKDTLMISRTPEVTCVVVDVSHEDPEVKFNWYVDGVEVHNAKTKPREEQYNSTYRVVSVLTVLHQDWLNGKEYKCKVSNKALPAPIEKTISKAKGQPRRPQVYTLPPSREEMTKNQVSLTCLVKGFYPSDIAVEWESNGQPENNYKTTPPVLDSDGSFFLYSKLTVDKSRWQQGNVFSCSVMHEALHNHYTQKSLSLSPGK
light: B5 light
notes: Human IgG1 with E345R (Eu numbering); also called IgG-CD27-A-E345R; copies: 2 + 2
B6: binds [15].

B7: IgG1-CD27-A-E430G (antibody)
heavy: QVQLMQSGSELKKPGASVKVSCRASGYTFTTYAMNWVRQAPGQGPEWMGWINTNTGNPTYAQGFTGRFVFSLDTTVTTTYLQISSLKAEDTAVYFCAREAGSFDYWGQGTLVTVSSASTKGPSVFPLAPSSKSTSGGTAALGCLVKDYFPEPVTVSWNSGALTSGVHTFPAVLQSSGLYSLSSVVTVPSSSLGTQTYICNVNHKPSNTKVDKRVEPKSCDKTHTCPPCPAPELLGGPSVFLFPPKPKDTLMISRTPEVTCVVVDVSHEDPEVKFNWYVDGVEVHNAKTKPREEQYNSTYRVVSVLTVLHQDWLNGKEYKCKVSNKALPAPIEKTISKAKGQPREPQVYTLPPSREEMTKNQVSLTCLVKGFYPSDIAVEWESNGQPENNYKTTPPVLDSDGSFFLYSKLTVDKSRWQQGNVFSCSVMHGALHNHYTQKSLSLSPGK
light: B5 light
notes: Human IgG1 with E430G (Eu numbering); copies: 2 + 2
In the case of B7, the “EC50 (read off the curve)” value [15] is reported as about 0.03 µg/mL.

B8: IgG1-CD27-A as bispecific antibody with one CD27-specific Fab-arm and one non-binding Fab-arm (bispecific antibody)
chain 1: B2 VH
chain 2: B2 VL
chain 3: QVQLVQSGAEVKKPGASVKVSCQASGYRFSNFVIHWVRQAPGQRFEWMGWINPYNGNKEFSAKFQDRVTFTADTSANTAYMELRSLRSADTAVYYCARVGPYSWDDSPQDNYYMDVWGKGTTVIVSSASTKGPSVFPLAPSSKSTSGGTAALGCLVKDYFPEPVTVSWNSGALTSGVHTFPAVLQSSGLYSLSSVVTVPSSSLGTQTYICNVNHKPSNTKVDKRVEPKSCDKTHTCPPCPAPEFEGGPSVFLFPPKPKDTLMISRTPEVTCVVVAVSHEDPEVKFNWYVDGVEVHNAKTKPREEQYNSTYRVVSVLTVLHQDWLNGKEYKCKVSNKALPAPIEKTISKAKGQPREPQVYTLPPSREEMTKNQVSLTCLVKGFYPSDIAVEWESNGQPENNYKTTPPVLDSDGSFFLYSRLTVDKSRWQQGNVFSCSVMHEALHNHYTQKSLSLSPG
chain 4: EIVLTQSPGTLSLSPGERATFSCRSSHSIRSRRVAWYQHKPGQAPRLVIHGVSNRASGISDRFSGSGSGTDFTLTITRVEPEDFALYYCQVYGASSYTFGQGTKLERKRTVAAPSVFIFPPSDEQLKSGTASVVCLLNNFYPREAKVQWKVDNALQSGNSQESVTEQDSKDSTYSLSSTLTLSKADYEKHKVYACEVTHQGLSSPVTKSFNRGEC
With B8 the Kd [16] was 130 nM, the koff [16] was 0.018 s⁻¹ and the kon [16] was 130000 M⁻¹ s⁻¹. The Kd [17] was 120 nM, the koff [17] was 0.02 s⁻¹ and the kon [17] was 170000 M⁻¹ s⁻¹.
